The source of these data is US20230212306A1 (Daiichi Sankyo, published 2023).

The experiment concerns the target T1, human TLR7-Flag-His×6 (human TLR7 variant 2), expressed in Ba/F3 cells together with human Unc93B1-HA×2 (human, UniProt Q9NYK1 27-1049).
T1 construct: Cells were permeabilised with 0.1% saponin before staining; also called hTLR7-Flag-His×6; not shown: Flag-His×6 tag added to the C-terminus
T1 sequence: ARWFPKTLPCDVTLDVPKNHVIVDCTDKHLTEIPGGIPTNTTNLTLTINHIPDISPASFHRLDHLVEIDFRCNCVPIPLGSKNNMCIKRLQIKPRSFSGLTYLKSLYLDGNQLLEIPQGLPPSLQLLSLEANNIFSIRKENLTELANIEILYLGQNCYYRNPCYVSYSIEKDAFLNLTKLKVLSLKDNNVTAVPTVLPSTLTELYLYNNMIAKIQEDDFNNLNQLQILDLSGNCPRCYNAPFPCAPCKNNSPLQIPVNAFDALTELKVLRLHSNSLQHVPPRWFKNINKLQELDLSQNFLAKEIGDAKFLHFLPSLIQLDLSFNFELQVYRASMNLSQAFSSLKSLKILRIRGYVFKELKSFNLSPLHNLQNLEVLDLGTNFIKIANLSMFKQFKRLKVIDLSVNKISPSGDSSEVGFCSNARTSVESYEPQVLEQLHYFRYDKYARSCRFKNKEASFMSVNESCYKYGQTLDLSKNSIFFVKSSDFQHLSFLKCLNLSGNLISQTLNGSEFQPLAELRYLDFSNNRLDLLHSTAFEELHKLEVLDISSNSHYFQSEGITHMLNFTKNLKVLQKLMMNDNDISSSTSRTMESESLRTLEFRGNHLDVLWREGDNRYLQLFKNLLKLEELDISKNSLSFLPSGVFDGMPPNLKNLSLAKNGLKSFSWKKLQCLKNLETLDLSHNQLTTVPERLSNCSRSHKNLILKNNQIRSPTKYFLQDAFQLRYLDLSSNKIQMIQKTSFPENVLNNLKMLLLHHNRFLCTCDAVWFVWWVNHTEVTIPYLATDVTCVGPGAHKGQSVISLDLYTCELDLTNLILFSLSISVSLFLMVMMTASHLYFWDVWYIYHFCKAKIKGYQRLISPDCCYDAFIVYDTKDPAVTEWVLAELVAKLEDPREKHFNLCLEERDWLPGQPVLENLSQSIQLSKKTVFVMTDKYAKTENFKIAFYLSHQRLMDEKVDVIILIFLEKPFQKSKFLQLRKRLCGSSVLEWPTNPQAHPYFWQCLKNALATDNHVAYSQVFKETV
Briefly: flow cytometry (MFI), antibody dilution series on saponin-permeabilised Ba/F3 cells expressing human TLR7-Flag-His×6/hUnc93B1-HA×2. As to the method: A Ba/F3 cell line expressing human TLR7-Flag-His×6/hUnc93B1-HA×2 was subjected to membrane permeation with 0.1% Saponin and stained using the dilution series of chimeric AT01 antibody, NB7 antibody, and FAN2 antibody at the antibody concentrations obtained in Example 4, and the secondary antibody, Goat anti-human IgG Fc-PE (eBioscience). The binding activity of each antibody was evaluated by comparing the MFI based on flow cytometry analysis.

B1: cNB7 antibody (antibody, human IgG1, V domains shown)
VH: DVQLQESGPGLVKPSQSLSLTCTVTGYSITSDYAWNWIRQFPGNKLEWMGHISYRGNTNYNPSLKSRISITRDTSKNQFFLQLNSVTTEDTATYYCASWNYYGYVDYAMDYWGQGTSVTVSS
VL: DIQMTQTPSSLSASLGDRVTISCRASQDISNYLNWYQQKPDGTVKLLIYYTSRLHSGVPSRFSGSGSGTDYSLTINNLEQEDIATYFCQQGDTFPTFGGGTKLEIKR
notes: Mouse variable regions on human IgG1 / human kappa constant regions; also called chimeric NB7 antibody; NB7 chimeric anti-human TLR7 antibody
Turning to B1, the binding result was “binds”.

B2: cAT01 antibody (antibody, human IgG1, V domains shown)
VH: QVQLQQPGAELVKPGASVNLSCKASGYTFTNNWLHWVKQRPGRGLEWIGDIYPSNGRTNYNEQFKTKATLTVDKSSSTAYMQLSSLTSEDSAVYFCARERGYFDYWGQGTALTVSS
VL: DIQMTQSPSSLSTSLGGKVTITCKASQDINKYIAWYQHKPGKGPRLLIHYTSTLQPGIPSRFSGSGSGRDYSFSISNLEPEDIATYYCLQYDYLLTFGAGTKLELKR
notes: Mouse variable regions on human IgG1 / human kappa constant regions; also called chimeric AT01 antibody; AT01 chimeric anti-human TLR7 antibody
For the molecule B2, the binding result is given as “binds”.

B3: cFAN2 antibody (antibody, human IgG1, V domains shown)
VH: QVQLKESGPGLVAPSQSLSITCTVSGFSLTGYGVNWVRQPPGKGLEWLGMIWGDGSTDYNSALKSRLSIRKDNSKSQVFLKMNSLQTDDTARYYCARDKGYDGYYYAMDYWGQGTSVTVSS
VL: DIQMTQSPASLSASVGETVTITCRASENIYSYLAWYQQKQGKSPQLLVYDAKTLAEGVPSRFSGSGSGTQFSLKINSLQPEDFGSYYCQHHYGIPYTFGGGTKLEIKR
notes: Mouse variable regions on human IgG1 / human kappa constant regions; also called chimeric FAN2 antibody; FAN2 chimeric anti-human TLR7 antibody
Consider B3, for which the binding result is given as “binds”.
